Measured values reported in US20200318071A1.

Biological target: human CD33 (full length, CD33M) (human) (UniProt P20138)
Assay: cell-based or functional assay

Sequence of UniProt P20138 (P20138 18-364 limits assumed): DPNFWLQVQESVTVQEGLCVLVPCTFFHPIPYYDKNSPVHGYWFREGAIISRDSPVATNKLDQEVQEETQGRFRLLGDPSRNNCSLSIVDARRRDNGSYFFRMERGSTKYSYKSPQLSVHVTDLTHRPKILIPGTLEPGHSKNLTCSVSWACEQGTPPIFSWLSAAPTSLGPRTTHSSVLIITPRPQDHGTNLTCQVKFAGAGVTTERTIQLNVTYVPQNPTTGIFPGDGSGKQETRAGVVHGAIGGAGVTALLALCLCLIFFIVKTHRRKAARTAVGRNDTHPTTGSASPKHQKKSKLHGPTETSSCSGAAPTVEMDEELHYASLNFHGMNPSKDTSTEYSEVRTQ

gemtuzumab ozogamicin (antibody)
IC50 of GO cytotoxicity, HL-60 cells (viable cell number, Celltiter Glo, 72 hours): 0.0355 µg/mL
IC50 of GO cytotoxicity, THP-1 cells (viable cell number, Celltiter Glo, 72 hours): 0.0163 µg/mL
